Assay results published in patent US20020068323A1 (Amgen, published 2002).

Columns and labels:
[1] = biological target: T1, murine IL-7Rα (murine, UniProt P16872 21-459); assay: affinity labeling, DSS cross-linking, transfected 293 cells, SDS-PAGE
T1 construct: whole, on cells; Expressed alone on transiently transfected 293 cells; also called murine IL-7Rα alone
T1 sequence (looked up): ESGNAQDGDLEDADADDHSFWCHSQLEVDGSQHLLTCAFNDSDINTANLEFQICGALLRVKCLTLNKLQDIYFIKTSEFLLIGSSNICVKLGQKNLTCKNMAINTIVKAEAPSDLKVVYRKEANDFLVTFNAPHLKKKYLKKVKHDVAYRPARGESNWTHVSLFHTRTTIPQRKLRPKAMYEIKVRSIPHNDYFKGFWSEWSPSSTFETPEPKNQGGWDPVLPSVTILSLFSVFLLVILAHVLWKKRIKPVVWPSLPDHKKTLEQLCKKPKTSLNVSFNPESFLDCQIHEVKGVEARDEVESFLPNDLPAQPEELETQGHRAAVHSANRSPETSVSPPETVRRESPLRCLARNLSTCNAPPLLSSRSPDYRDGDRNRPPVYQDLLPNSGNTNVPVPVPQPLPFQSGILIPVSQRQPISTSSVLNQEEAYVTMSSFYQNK
Procedure: The binding of TSLP to TSLPR polypeptide in the presence of IL-7Rα was examined in affinity labeling assays. Affinity labeling assays were performed by adding 1-5 nM of ¹²⁵I-labeled TSLP to 5×10⁶ 293 cells transfected with expression constructs for murine IL-7Rα, murine TSLPR polypeptide, murine IL-7Rα and murine TSLPR polypeptide, or human IL-7Rα and murine TSLPR polypeptide. Iodinated TSLP was prepared by adding IODO-GEN (Pierce, Rockford, Ill.) and 2 mCi¹²⁵I to 1 μg of TSLP. A specific activity of approximately 200-300 μCi/μg was obtained by this method. Prior to affinity labeling, 293 cells were transiently transfected using the calcium phosphate method (Eppendorf-5 Prime, Boulder, Colo.). Following a 2 hour incubation with ¹²⁵I-TSLP, cells were cross-linked with 0.1 mg/ml disuccinimidyl suberate (Pierce), lysed in lysis buffer, and the lysates resolved by SDS-PAGE.

[2] = biological target: T2, TSLP receptors constitutively expressed on NAG8/7 cells; assay: displacement binding assay with ^125I-TSLP and unlabeled TSLP on NAG8/7 cells, Scatchard transformation
T2 construct: also called single class of receptors
Procedure: (§1) The binding of TSLP to 293 cells transfected with murine IL-7Rα and murine TSLPR polypeptide, or murine IL-7Rα alone, was analyzed in a displacement binding assay. Following two washes, 1×10⁶ transfected 293 cells were incubated in a constant amount of ¹²⁵I-labeled TSLP (approximately 20,000 cpm) and varying amounts of unlabeled TSLP. Following a 3 hour incubation, treated cells were separated from the medium by centrifugation in olive oil and N-butylphthalate. Cell-bound radioactivity was measured using a gamma counter.
(§2) Analysis of binding data by Scatchard transformation was performed using the LIGAND computer program (Munson and Rodbard, 1980, Anal. Biochem. 107:220-39). […] Due to the very low binding activity of TSLP for cells expressing […], it was not possible to determine the Kd for these cells. Displacement binding assays were also performed using NAG8/7 cells, which constitutively express TSLP receptors and proliferate in response to TSLP (Friend et al., supra; Levin et al., supra). In these displacement binding assays, 5×10⁶ NAG8/7 cells were incubated in a constant amount of ¹²⁵I-labeled TSLP (approximately 180,000 cpm) and varying amounts of unlabeled TSLP. The remainder of the assay was performed as described herein.

[3] = biological target: T3, heterodimer of murine IL-7Rα and murine TSLPR polypeptide (murine, UniProt P16872 21-459); assay: displacement binding assay on transfected 293 cells, Scatchard transformation (LIGAND program)
T3 construct: whole, on cells; Both chains co-expressed on transiently transfected 293 cells; also called IL-7Rα/TSLPR polypeptide heterodimer; cells expressing TSLPR polypeptide and IL-7Rα
T3 sequence (P16872 whole entry, looked up): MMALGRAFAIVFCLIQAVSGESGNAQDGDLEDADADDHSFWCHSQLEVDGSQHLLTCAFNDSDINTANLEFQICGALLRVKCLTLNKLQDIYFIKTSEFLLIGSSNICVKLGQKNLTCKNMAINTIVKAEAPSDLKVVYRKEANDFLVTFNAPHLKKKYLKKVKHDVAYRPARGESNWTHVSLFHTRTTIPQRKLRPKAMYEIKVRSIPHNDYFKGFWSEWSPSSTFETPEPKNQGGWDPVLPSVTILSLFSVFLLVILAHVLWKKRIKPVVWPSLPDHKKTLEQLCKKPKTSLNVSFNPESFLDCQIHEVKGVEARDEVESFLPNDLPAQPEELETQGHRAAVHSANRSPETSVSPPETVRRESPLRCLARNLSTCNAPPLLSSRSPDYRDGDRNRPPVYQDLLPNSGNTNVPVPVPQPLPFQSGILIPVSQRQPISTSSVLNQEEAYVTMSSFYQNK
T3 sequence (Q8CII9 whole entry, looked up): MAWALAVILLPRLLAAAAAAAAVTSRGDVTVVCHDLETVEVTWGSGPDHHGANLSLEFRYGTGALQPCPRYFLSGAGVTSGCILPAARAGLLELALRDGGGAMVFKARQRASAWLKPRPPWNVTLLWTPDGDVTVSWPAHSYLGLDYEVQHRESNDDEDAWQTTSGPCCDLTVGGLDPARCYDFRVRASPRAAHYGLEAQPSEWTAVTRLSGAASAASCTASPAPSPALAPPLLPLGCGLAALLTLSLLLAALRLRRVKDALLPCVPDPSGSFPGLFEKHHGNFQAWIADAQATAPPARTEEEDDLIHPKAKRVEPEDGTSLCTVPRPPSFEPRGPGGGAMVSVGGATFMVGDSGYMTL
Procedure: as §1, §2

Kd [2]: ~2.2 nM
Kd [3]: ~13 nM
B1: Thymic stromal lymphopoietin (TSLP) (ligand, UniProt Q9JIE6 20-140, looked up)
chain: YNFSNCNFTSITKIYCNIIFHDLTGDLKGAKFEQIEDCESKPACLLKIEYYTLNPIPGCPSLPDKTFARRTREALNDHCPGYPETERNDGTQEMAQEVQNICLNQTSQILRLWYSFMQSPE
binding result [1]: no binding (tested: 1-5 nM of ^125I-labeled TSLP)
